Experimental data as given in patent publication US8394641B2, “Method of hydrolyzing an enzymatic substrate” (Advanced Liquid Logic Inc., priority 2009, dated 2013).
Where two headings read alike, the source gives them in different places.

Experiments:
[1] = biological target: T1, acid β-D-glucosidase (Homo sapiens, UniProt P04062); experiment: Droplet-based enzymatic assay for acid β-D-glucosidase (Gaucher), comparison of substrates; type: biochemical; settings: droplet actuator, Gaucher's disease testing
T1 sequence (P04062 40-536): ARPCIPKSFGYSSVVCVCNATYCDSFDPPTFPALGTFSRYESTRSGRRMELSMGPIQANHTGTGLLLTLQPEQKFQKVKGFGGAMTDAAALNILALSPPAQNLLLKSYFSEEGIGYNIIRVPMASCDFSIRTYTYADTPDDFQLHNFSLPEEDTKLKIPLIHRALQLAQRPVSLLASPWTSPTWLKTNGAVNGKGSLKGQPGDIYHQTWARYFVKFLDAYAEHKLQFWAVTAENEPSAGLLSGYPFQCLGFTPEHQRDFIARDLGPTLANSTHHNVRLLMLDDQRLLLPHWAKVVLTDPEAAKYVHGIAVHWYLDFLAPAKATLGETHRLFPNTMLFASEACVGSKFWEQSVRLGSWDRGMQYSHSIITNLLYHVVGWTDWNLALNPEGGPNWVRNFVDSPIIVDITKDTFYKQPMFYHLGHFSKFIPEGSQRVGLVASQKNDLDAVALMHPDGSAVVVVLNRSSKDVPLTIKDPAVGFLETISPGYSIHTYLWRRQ
From the text: The invention provides assay methods for detection of Gaucher and Niemann-Pick diseases on a droplet actuator. Gaucher's disease and Niemann-Pick's disease are caused by deficient activity of the lysosomal enzymes acid β-D-glucosidase and acid sphingomyelinase, respectively. In one embodiment, the invention provides methods for a droplet-based enzymatic assay for acid β-D-glucosidase activity. For example, a multifluoroethylumbelliferyl-β-D-glucoside, such as a 4-pentafluoroethylumbelliferyl-β-D-glucoside, may be used as a substrate fluid in a droplet-based enzymatic assay for acid β-D-glucosidase enzyme activity. The increased number of fluorines makes the substrate fluid more labile to hydrolysis. The excitation/emission wavelengths for 4-pentafluoroethylumbelliferyl-β-D-glucoside are 385/495 nm.

[2] = biological target: iduronate-2-sulfate sulphatase (IDS) (Homo sapiens, UniProt P22304); settings: cited from earlier work
[3] = stock solution; cited from earlier work
[4] = Modified Hunter's assay (IDS) on a droplet actuator, recombinant iduronidase as second enzyme; type: biochemical, human
Method: Reagent solutions were prepared on-bench, and the experiment was performed on a droplet actuator using a digital microfluidic protocol. Different dilutions (1/10×, 1/4×, 1/3×, 1/2× and 1×) of plasma samples from normal (n=1) and affected (n=1) subjects were prepared using molecular grade water. A blank sample was prepared using 1 μg/mL of recombinant iduronidase in 0.05 M Na-Acetate/0.05 M Acetic acid buffer pH 5.0. A working stock of 10 μg/mL recombinant iduronidase in 0.05 M Na-Acetate/0.05 M Acetic acid buffer pH 5.0 was prepared from a stock of 0.5 mg/mL iduronidase (supplied in 0.05 M Na-Acetate with 150 mM NaCl, 0.02% Brij-35 (w/v) pH 3.5). A working stock of 1.25 mM MU-αIdoA-S substrate fluid was prepared in 0.1 M Na-Acetate, 0.1M Acetic Acid buffer pH 5.0 containing 10 mM Pb-Acetate. A substrate fluid was prepared by mixing 1 μL of 10 μg/mL recombinant iduronidase and 9 μL of 1.25 mM MU-αIdoA-S.
In one example, the digital microfluidic protocol for testing plasma sample dilutions included the following steps: • 1. […] Detect fluorescence at 364 nm (t=0 h); • 7. […] Detect fluorescence at 364 nm (t=8 h).
Eight different normal plasma samples were analyzed using two concentrations of recombinant iduronidase (i.e., 1 μg/mL and 10 μg/mL) in the modified Hunter's assay. […]

[5] = Recombinant iduronidase standard curve in the presence of BSA on a droplet actuator; type: biochemical; settings: after stop buffer, room temperature
Method: Serial dilutions of recombinant iduronidase were prepared in 0.05 M Na-Acetate/0.05 M Acetic acid buffer, pH 5.0 from a stock of 0.5 mg/mL recombinant iduronidase containing 1 mg/mL molecular biology grade bovine serum albumin (BSA). A substrate fluid was prepared in 0.05 M Na Acetate, pH 5.0 containing 1 mM 4-methylumbelliferyl-α-L-idopyranosiduronic acid (4-MUI) and 100 μM D-saccharic acid 1,4-lactone.
The digital microfluidic protocol for the iduronidase standard curve included the following steps: • 1. Mix one 1× droplet of iduronidase and one 1× droplet of substrate fluid to yield a 2× reaction droplet; • 2. Split the 2× reaction droplet into two 1× reaction droplets; • 3. Dispense 11 droplets of stop buffer (sodium carbonate pH 10.1, 0.01% Tween® 20) and combine them with the first set of 1× reaction droplets; • 4. Detect end point fluorescence at 365 nm (t=0); • 5. Incubate the second set of 1× reaction droplets for 1 h at room temperature; • 6. After 1 h of incubation, dispense 11 droplets of stop buffer and combine with the reaction droplets; and • 7. Detect end point fluorescence at 365 nm (t=1 h).

Chain of iduronate-2-sulfate sulphatase (IDS) (P22304 34-550): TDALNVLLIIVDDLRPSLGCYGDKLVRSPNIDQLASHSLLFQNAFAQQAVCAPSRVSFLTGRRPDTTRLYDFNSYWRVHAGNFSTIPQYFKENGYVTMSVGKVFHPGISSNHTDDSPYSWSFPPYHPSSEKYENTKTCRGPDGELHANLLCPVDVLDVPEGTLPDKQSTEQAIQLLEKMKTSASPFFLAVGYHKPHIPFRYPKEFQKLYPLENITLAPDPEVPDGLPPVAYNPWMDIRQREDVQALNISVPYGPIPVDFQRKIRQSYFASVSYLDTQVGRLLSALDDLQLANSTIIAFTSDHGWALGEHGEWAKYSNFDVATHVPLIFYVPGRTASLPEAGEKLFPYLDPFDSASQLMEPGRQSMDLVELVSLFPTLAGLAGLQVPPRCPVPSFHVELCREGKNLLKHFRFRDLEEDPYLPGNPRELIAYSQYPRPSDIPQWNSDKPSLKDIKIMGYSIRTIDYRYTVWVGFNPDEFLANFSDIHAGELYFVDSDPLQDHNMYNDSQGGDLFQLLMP

O=c1cc(C(F)(F)C(F)(F)F)c2ccc(O[C@@H]3O[C@H](CO)[C@@H](O)[C@H](O)[C@H]3O)cc2o1 [4-pentafluoroethylumbelliferyl-β-D-glucoside]
enzymatic activity compared with the 4-methylumbelliferyl-β-D-glucoside substrate fluid [1]: as much as eight-fold greater

Cl [chloride]
IDS activity inhibited ([2]; 30 mM chloride): 50%
IDS activity inhibited ([2]; 250 mM chloride): completely inhibited

B1: recombinant iduronidase: Recombinant α-L-Iduronidase from R&D Systems, second enzyme of the Hunter's assay (protein, UniProt P35475 28-653, looked up)
Alpha-L-iduronidase: APHLVHVDAARALWPLRRFWRSTGFCPPLPHSQADQYVLSWDQQLNLAYVGAVPHRGIKQVRTHWLLELVTTRGSTGRGLSYNFTHLDGYLDLLRENQLLPGFELMGSASGHFTDFEDKQQVFEWKDLVSSLARRYIGRYGLAHVSKWNFETWNEPDHHDFDNVSMTMQGFLNYYDACSEGLRAASPALRLGGPGDSFHTPPRSPLSWGLLRHCHDGTNFFTGEAGVRLDYISLHRKGARSSISILEQEKVVAQQIRQLFPKFADTPIYNDEADPLVGWSLPQPWRADVTYAAMVVKVIAQHQNLLLANTTSAFPYALLSNDNAFLSYHPHPFAQRTLTARFQVNNTRPPHVQLLRKPVLTAMGLLALLDEEQLWAEVSQAGTVLDSNHTVGVLASAHRPQGPADAWRAAVLIYASDDTRAHPNRSVAVTLRLRGVPPGPGLVYVTRYLDNGLCSPDGEWRRLGRPVFPTAEQFRRMRAAEDPVAAAPRPLPAGGRLTLRPALRLPSLLLVHVCARPEKPPGQVTRLRALPLTQGQLVLVWSDEHVGSKCLWTYEIQFSQDGKAYTPVSRKPSTFNLFVFSPDTGAVSGSYRVRALDYWARPGPFSDPVPYLEVPVPRGPPSPGNP
specific activity of stock enzyme [3]: > 7.5 nmol/min/µg
concentration dependence of Hunter's assay activity ([4]; 1 μg/mL vs 10 μg/mL, eight normal plasma samples): higher activity at 10 μg/mL
liberation of 4-MU from 4-methylumbelliferyl-α-L-iduronic acid in the IDS assay ([4]; 1 μg/ml, data not shown): sufficient
Relative fluorescence at t = 1 hrs incubation (Rfu) ([5]; Idu 0.001 μg/mL): 34.6948 Rfu
Relative fluorescence at t = 1 hrs incubation (Rfu) ([5]; Idu 0.01 μg/mL): 179.1927 Rfu
Relative fluorescence at t = 1 hrs incubation (Rfu) ([5]; Idu 0.1 μg/mL): 999.3997 Rfu
Relative fluorescence at t = 1 hrs incubation (Rfu) ([5]; Idu 1 μg/mL): 7427.665 Rfu
